We go through 7 molecules from paper PMC10465003, “The AAA-ATPase Yta4/ATAD1 interacts with the mitochondrial divisome to inhibit mitochondrial fission” (PLOS Biology, 2023).

First the molecules themselves.
B1: Dnm1 (enzyme, Schizosaccharomyces pombe, UniProt Q09748 1-781, looked up)
chain: MEQLIPLVNQLQDLVYNTIGSDFLDLPSIVVVGSQSCGKSSVLENIVGKDFLPRGTGIVTRRPLILQLINLKRKTKNNHDEESTSDNNSEETSAAGETGSLEGIEEDSDEIEDYAEFLHIPDTKFTDMNKVRAEIENETLRVAGANKGINKLPINLKIYSTRVLNLTLIDLPGLTKIPVGDQPTDIEAQTRSLIMEYISRPNSIILAVSPANFDIVNSEGLKLARSVDPKGKRTIGVLTKLDLMDQGTNAMDILSGRVYPLKLGFVATVNRSQSDIVSHKSMRDALQSERSFFEHHPAYRTIKDRCGTPYLAKTLSNLLVSHIRERLPDIKARLSTLISQTQQQLNNYGDFKLSDQSQRGIILLQAMNRFANTFIASIDGNSSNIPTKELSGGARLYSIFNNVFTTALNSIDPLQNLSTVDIRTAILNSTGSRATLFLSEMAFDILVKPQLNLLAAPCHQCVELVYEELMKICHYSGDSDISHFPKLQTALVETVSDLLRENLTPTYSFVESLIAIQSAYINTNHPDFLGVQGAMAVVLSRKEQNRLMLSQENDEPISSALDTVKPDGIELYSSDPDTSVKSITNKATNEITTLKSDDSAKMQPLDVLASKRYNNAFSTETAERKTFLSYVFGANNATRKAMSIDKSSSYPLNDSLSGGDTNHKNNHPLKMTDLSNEVETMALEDMSEREEVEVDLIKELITSYFNLTRKIIIDQVPKVIMHLLVNASKDAIQNRLVSKLYREDFFDTLLIEDENVKSEREKCERLLSVYNQANKIISTVF
notes: Dnm1, fission yeast dynamin-related GTPase; also called Dnm1(WT); recombinant Dnm1; source: E. coli Rosseta, purified (Ni-NTA, sumo protease, size-exclusion chromatography); not shown: His-sumo, N-terminal, cleaved

Data set [1] has as its target B1.
In data set [2] the target is GST-Mdv1(319–651) (Schizosaccharomyces pombe) (UniProt Q9P7I3). Briefly: pull-down; competitive binding: GST-Mdv1(a.a. 319–651) on glutathione resins incubated with Dnm1 or Dnm1(G380D), with or without His-Yta4(a.a 33–355); band intensities quantified.
Data set [3] concerns the target Hcp1-Yta4(a.a. 35–355) (not stated | Schizosaccharomyces pombe). Briefly: SEC + cross-linking; Superdex 200 Increase 10/300 GL in hypersaline buffer (500 mM NaCl, 500 mM KCl, 1 mM ATP, pH 7.5); EGS 4 mM, 300 ng/μL protein, 30 min at room temperature, SDS-PAGE with silver staining.
Data set [4] addresses Hcp1-Msp1(a.a. 36–362) (not stated | budding yeast (Saccharomyces cerevisiae)) (UniProt P28737). The data set is described as above.
Substrate in data set [5]: Nc1nc2c(ncn2[C@@H]2O[C@H](COP(=O)(O)OP(=O)(O)OP(=O)(O)O)[C@@H](O)[C@H]2O)c(=O)[nH]1
The experiment in a line: malachite green phosphate release, Michaelis-Menten fit. It is filed as biochemical, Schizosaccharomyces pombe. Conditions: pH 7.5, 37°C.

Data set [6] deals with the molecule itself. Briefly: co-sedimentation; velocity sedimentation: 2 μM Dnm1 with 0, 5, 50 or 100 μM GMP-PCP, with or without 40 μM His-Yta4; 20 min at 37°C, 10,000 g 15 min at 4°C; supernatant and pellet on SDS-PAGE.
The next data set has as its target T1, Dnm1(G380D) (Schizosaccharomyces pombe, UniProt Q09748 1-781, G380D).
T1 construct: Dnm1, fission yeast dynamin-related GTPase, with G380D (corresponds to G385D of S. cerevisiae Dnm1); Removal of His-sumo is stated for His-sumo-Dnm1 only; also called assembly-defective mutant of Dnm1; source: E. coli Rosseta, expressed as His-sumo-Dnm1(G380D), purified (Ni-NTA)
T1 sequence (looked up): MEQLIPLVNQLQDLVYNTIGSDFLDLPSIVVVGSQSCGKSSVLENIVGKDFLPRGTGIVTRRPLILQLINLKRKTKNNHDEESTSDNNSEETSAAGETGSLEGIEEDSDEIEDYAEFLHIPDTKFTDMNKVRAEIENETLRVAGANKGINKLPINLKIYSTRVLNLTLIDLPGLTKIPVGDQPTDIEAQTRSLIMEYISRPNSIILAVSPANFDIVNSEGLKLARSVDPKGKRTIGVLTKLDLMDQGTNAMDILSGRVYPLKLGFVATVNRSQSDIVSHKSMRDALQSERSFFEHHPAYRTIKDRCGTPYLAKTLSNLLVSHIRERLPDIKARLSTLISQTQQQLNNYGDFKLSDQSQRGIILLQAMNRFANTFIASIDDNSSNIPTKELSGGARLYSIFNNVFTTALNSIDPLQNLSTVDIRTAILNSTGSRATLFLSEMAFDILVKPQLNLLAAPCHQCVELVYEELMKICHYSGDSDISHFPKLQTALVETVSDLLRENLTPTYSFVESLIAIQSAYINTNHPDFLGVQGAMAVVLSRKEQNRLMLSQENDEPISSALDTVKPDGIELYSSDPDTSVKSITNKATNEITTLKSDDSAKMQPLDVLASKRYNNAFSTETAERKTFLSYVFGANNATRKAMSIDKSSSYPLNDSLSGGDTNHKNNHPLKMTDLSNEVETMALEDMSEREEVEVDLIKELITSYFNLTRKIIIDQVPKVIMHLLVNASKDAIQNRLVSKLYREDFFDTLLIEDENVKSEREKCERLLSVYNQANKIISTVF
Briefly: pull-down; competitive binding: GST-Mdv1(a.a. 319–651) on glutathione resins incubated with Dnm1 or Dnm1(G380D), with or without His-Yta4(a.a 33–355); band intensities quantified. Conditions: both partners purified.

Data set [7] deals with B1. The data set is described as above. Conditions: both partners purified.
The target of data set [8] is T2, GST-Mdv1(a.a. 1–249) (Schizosaccharomyces pombe (strain 972 / …, UniProt Q9P7I3)).
T2 chain: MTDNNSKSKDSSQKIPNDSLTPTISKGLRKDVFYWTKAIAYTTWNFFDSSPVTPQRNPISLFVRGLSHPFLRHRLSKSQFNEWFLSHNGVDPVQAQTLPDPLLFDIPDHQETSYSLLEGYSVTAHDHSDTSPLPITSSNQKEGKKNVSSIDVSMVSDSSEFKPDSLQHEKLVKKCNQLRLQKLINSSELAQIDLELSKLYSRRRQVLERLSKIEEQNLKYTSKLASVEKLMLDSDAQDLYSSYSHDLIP
The experiment in a line: GST pull-down.

Data set [9] has as its target T3, GST-Mdv1(a.a. 1–249) (Schizosaccharomyces pombe, UniProt Q9P7I3 1-249).
T3 construct: Mdv1, S. pombe, residues 1-249, the N-terminus; also called GST-Mdv1(NT); not shown: GST, N-terminal, kept
T3 sequence (looked up): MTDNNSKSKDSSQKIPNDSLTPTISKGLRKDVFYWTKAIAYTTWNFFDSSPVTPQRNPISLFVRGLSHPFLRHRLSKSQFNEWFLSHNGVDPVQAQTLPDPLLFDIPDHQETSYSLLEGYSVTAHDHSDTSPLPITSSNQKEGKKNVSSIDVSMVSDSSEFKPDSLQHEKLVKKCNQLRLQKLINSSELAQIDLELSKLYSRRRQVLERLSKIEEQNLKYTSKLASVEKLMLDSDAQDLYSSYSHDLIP
Briefly: pull-down; competitive binding: GST-Mdv1(a.a. 1–249) on glutathione resins incubated with His-Fis1(a.a. 1–128), with or without His-Yta4(a.a 33–355) (Mdv1 to Yta4 1:1, 1:5, 1:10). Conditions: both partners purified.

Consider “His-Yta4(a.a. 33–355) (domain or fragment)”, for which the Km for GTP of the GTPase activity of 0.5 μM Dnm1 (colorimetric assay, 37°C) with 5 μM and 10 μM His-Yta4(∆TM), fold increase over Dnm1 alone; Vmax not significantly affected in the data set with Dnm1 [1] came out at 6 fold. Also, the Dnm1 left on GST-Mdv1(WD) with His-Yta4(∆TM), percent of the level without it in data set [2] was determined as 40%. Consider Hcp1-Yta4(a.a. 35–355), for which, in [3], the stoichiometry N (commonly a count of units in the complex or per binding partner) was 6. Consider “Hcp1-Msp1(a.a. 36–362) (from UniProt P28737 36-362)”, for which the stoichiometry N in data set [4] was 6. With B1, in [5] (0.5 μM Dnm1 alone, Mg2+), the Km (usually the substrate concentration at which the rate is half of its maximum) was determined as 193.80 µM. Besides, the binding result in data set [6] is recorded as “binds”.

B2: Dnm1 (Schizosaccharomyces pombe 972h-; G380D) (protein)
chain: MEQLIPLVNQLQDLVYNTIGSDFLDLPSIVVVGSQSCGKSSVLENIVGKDFLPRGTGIVTRRPLILQLINLKRKTKNNHDEESTSDNNSEETSAAGETGSLEGIEEDSDEIEDYAEFLHIPDTKFTDMNKVRAEIENETLRVAGANKGINKLPINLKIYSTRVLNLTLIDLPGLTKIPVGDQPTDIEAQTRSLIMEYISRPNSIILAVSPANFDIVNSEGLKLARSVDPKGKRTIGVLTKLDLMDQGTNAMDILSGRVYPLKLGFVATVNRSQSDIVSHKSMRDALQSERSFFEHHPAYRTIKDRCGTPYLAKTLSNLLVSHIRERLPDIKARLSTLISQTQQQLNNYGDFKLSDQSQRGIILLQAMNRFANTFIASIDDNSSNIPTKELSGGARLYSIFNNVFTTALNSIDPLQNLSTVDIRTAILNSTGSRATLFLSEMAFDILVKPQLNLLAAPCHQCVELVYEELMKICHYSGDSDISHFPKLQTALVETVSDLLRENLTPTYSFVESLIAIQSAYINTNHPDFLGVQGAMAVVLSRKEQNRLMLSQENDEPISSALDTVKPDGIELYSSDPDTSVKSITNKATNEITTLKSDDSAKMQPLDVLASKRYNNAFSTETAERKTFLSYVFGANNATRKAMSIDKSSSYPLNDSLSGGDTNHKNNHPLKMTDLSNEVETMALEDMSEREEVEVDLIKELITSYFNLTRKIIIDQVPKVIMHLLVNASKDAIQNRLVSKLYREDFFDTLLIEDENVKSEREKCERLLSVYNQANKIISTVF
notes: Dnm1 expressed as His-sumo-Dnm1 in E. coli Rosetta; His-sumo tag removed by sumo protease; Ni-NTA and SEC; forms heterogeneous oligomers
Take B2: the Km in [5] (assembly-defective mutant, 0.5 μM, without Yta4, Mg2+) is 85.00 µM.

B3: GST-Mdv1(319–651) (domain or fragment, Schizosaccharomyces pombe, UniProt Q9P7I3 319-651, looked up)
chain: YIVGNLVKQFQAHSEYITSLDFSHPFGTLATASTDKTVKVWDMAGVVYLGSLKGHSDYVSCLAIQDSFIATGSMDTTVRLWNLDNDVLHKDNPVEESLNSPPDQPVDNATNVLTSHTAPVTALALSSDDVLITGADDKTVRQWDIVTGRCIQTLDFVWAETHDTSTSQILVSDTYKQEPFIRALDCLDAAVASGTVDGLIRIWDLRIGLPVRSFIGHTAPISSLQFDSNHLYSGSYDNSVRIWDLRSGSPINIIPMEKKVNSLRLYQGRLAVASDEPNVRIFDTVSNRNWICSIPSHSDSIAAEPNSVPTSVQYKDRFLVDGKSDGSVSVFSA
notes: also called GST-Mdv1(WD); Mdv1(WD); source: E. coli BL21, purified (Glutathione Sepharose 4B resins); not shown: GST, N-terminal, kept
B3: the binding result with Dnm1(G380D) and with Dnm1 [7] was “binds” in each case.

B4: His-Fis1(1–128) (domain or fragment, Schizosaccharomyces pombe, UniProt Q9USZ8 1-128, looked up)
chain: MTEKHTLRLADPSAIDSIISVDEFLQIKEQYDAEQPLITLQTKFNLAWALVRSDSTQHVQQGLSLFCSIYKDSPERRLECLYYIALSHYKLKQYEESRRYLNMLLSKDPNSPEALKLKNRLYDAVTKE
notes: also called His-Fis1(∆TM); Fis1(∆TM); source: E. coli BL21, purified (Ni-NTA, size-exclusion chromatography); not shown: His tag, N-terminal, kept
With B4, the binding result with GST-Mdv1(a.a. 1–249) [8] and with GST-Mdv1(a.a. 1–249) [9] was “binds” throughout.
